Laboratory results from paper PMC11196582 (Scientific Reports, 2024).
One block for each binder: values may come before it.

Assays:
[1] = target: T1, Human IL-4Rα overexpressed on HEK293T cells (Homo sapiens (Human)., UniProt P24394); test: cell-based or functional assay
[2] = target: T2, Biotinylated IL-4Rα (Homo sapiens (assumed), UniProt P24394, biotin); test: SPR; iMSPR-ProX; biotinylated IL-4Rα immobilised on the sensor chip (A-Dex100) at 169.7 RU; Dup-scFv at 1.56-100 nM; regeneration with 10 mM glycine-HCl pH 1.5; 1:1 kinetic binding model; settings: both partners purified
T2 construct: IL-4 receptor alpha (IL-4Rα); Probably a soluble extracellular construct of the human receptor (surmised); also called IL-4Ra; immobilized IL-4Rα
T2 sequence (P24394 26-825): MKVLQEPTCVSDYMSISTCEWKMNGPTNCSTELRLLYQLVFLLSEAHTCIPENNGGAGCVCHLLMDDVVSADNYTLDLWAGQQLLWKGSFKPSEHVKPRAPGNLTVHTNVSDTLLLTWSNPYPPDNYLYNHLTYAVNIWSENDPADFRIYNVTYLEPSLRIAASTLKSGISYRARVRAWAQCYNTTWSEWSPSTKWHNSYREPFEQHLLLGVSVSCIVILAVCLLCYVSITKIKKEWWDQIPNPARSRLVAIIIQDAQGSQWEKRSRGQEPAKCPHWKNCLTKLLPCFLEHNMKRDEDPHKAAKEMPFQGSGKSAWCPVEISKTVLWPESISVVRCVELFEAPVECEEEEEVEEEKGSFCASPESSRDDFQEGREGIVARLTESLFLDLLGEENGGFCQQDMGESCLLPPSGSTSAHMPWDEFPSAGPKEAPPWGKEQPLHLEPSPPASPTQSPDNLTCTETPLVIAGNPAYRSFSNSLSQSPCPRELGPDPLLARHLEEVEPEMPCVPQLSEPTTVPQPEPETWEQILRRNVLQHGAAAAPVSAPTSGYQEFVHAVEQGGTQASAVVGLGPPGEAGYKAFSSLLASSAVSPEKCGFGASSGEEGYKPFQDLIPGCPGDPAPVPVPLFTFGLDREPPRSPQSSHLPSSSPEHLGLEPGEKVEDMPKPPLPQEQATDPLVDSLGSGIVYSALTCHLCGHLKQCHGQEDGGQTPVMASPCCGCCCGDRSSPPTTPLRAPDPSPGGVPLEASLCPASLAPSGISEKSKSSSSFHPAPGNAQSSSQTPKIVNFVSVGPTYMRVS

[3] = target: T1, Human IL-4Rα overexpressed on HEK293T …; test: flow cytometry on cells; human IL-4Rα-overexpressing HEK293T cells, 2x10^5 cells/tube in PBS; seven-point curve; Dup-scFv detected with anti-6xHIS antibody and Alexa Fluor-647 anti-mouse IgG, dupilumab with Alexa Fluor-647 anti-human IgG; fitted in GraphPad Prism 8; settings: one partner purified

T1 sequence (P24394 26-825): as above

- IL-4-induced CCL26 mRNA (qPCR; more than 3000-fold with IL-4 alone) in HNECs with Dup-scFv 20 μg/ml on the apical side [1]: 1790 fold
- Kd [2]: 476 pM
- EC50 [3]: 17300 pM
B1: Dup-scFv with HDEL (single-chain variable fragment of dupilumab produced by Nicotiana benthamiana) (scFv, V domains shown)
VH: EVQLVESGGGLEQPGGSLRLSCAGSGFTFRDYAMTWVRQAPGKGLEWVSSISGSGGNTYYADSVKGRFTISRDNSKNTLYLQMNSLRAEDTAVYYCAKDRLSITIRPRYYGLDVWGQGTTVTVSS
VL: DIVMTQSPLSLPVTPGEPASISCRSSQSLLYSIGYNYLDWYLQKSGQSPQLLIYLGSNRASGVPDRFSGSGSGTDFTLKISRVEAEDVGFYYCMQALQTPYTFGQGTKLEIK
notes: VH region of dupilumab; linker, printed as (GGGGS)4 / 4 x G4S; VL region of dupilumab; The form without HDEL is GenBank PP711327; also called dupilumab-scFv; source: N. benthamiana leaves, Agrobacterium-mediated transient expression with p19, purified (Ni-NTA); not shown: His6, C-terminal, kept

- IL-4-induced CCL26 mRNA (qPCR; more than 3000-fold with IL-4 alone) in HNECs with dupilumab 100 μg/ml on the apical side [1]: 2200 fold
- Kd [2]: 133 pM
- EC50 [3]: 1020 pM
B2: Dupilumab (antibody, V domains shown)
VH: B1 VH
VL: B1 VL
notes: heavy chain of dupilumab (IgG4); light chain of dupilumab; IgG4 subclass monoclonal antibody (developed by Regeneron/Sanofi)
